{"source": "the domain aggregation screens of Martell et al. (2025)", "data": [{"assay": "soluble fraction after stress (log2 fold change); higher = more stays soluble; pooled small domains, quantitative proteomics", "details": "stress: 50 degC", "in_short": "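Pooled custom libraries of small protein domains were each held under stress at 50°C. The read-out, high-throughput quantitative proteomics, tracked how much of each protein stayed soluble. This is reported as a base-two log fold change used to indicate aggregation propensity. Higher values mean more protein remains in solution.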", "values": [{"sequence": "HMDIKKHISATLKREMEKRGLNFMEFSTELGIPRTTLQGYLKGTSSPQADSLEELADKLGISPAELVSG", "soluble fraction (log2)": 0.15}, {"sequence": "HMSVGDLPPEAREIWKLLDGRELSLDLLAEETGRETGALLSTLMMLEMKLLVEHGSDMVYRRIPRR", "soluble fraction (log2)": -1.78}, {"sequence": "HMSEKELTDLIERIKERRLKLEMSYQDLSDATGISKSTLQRYETGYIKKVPINQIEILAKALHTTPSYLMG", "soluble fraction (log2)": -0.238}, {"sequence": "HMDPDARQDAEVWLLDFLSAGPRTAQEIFTAARVEGHTRVTVKRAKATAGIQSVKQDFDGPWVWVLPGSG", "soluble fraction (log2)": -0.491}, {"sequence": "HMVPPVVRTIYGAGGKMTATFLFPGGYEVDAASGAELPGKYRVESISLDQVVLTDKDGNRVPVGFSSVAPT", "soluble fraction (log2)": 0.0614}, {"sequence": "HMNPETLTNGSVVKMSKANLSDELIIDMINNSPARFDLSSGALRSLEGEGVSKAVIESMKRATSG", "soluble fraction (log2)": 0.191}, {"sequence": "HMNESADMPDVVNMSLEAAKSQLEGMGLKVKVENVEDDSVEENHVIKTSPVSGEKVKLGTTVTLTVSKGR", "soluble fraction (log2)": -0.0231}, {"sequence": "HMEYSKSIKRLREDKNLTVEELAKRLSLDVEEIQKAEDGEDVDQKTLEAIARYFGVQYDSLVEGTAKSK", "soluble fraction (log2)": 0.0998}, {"sequence": "HMPPPTLVESAYNHLKADIISSYLKPDEKINLKDLSQRYQVSETPIKQALNRLISEGLIISVPRKGMWVH", "soluble fraction (log2)": -0.0852}, {"sequence": "HMDFDVELTSAGTAKVKVIKAVREATGLGLKEAKDLVDNAPSIVKEGLDEAAANDLKAALEETGASVTL", "soluble fraction (log2)": 0.117}, {"sequence": "HMPQISQDDLMEAGLIVGKEAKQRRIKLGEILGIGYVNAKQLPKRLQLFQVAKSDFEQAVQQIDG", "soluble fraction (log2)": -0.0431}, {"sequence": "HMYFNTADLKADSIHYGSTEQSVIKILGEPEYRETFVDNNVSYELFSYKGNLLLSFVENSLVSL", "soluble fraction (log2)": 0.0896}, {"sequence": "HMASMHDGVAARLRAMVFERELAPGEFIDERRLAQQWQISRTPLREALKVLAAEGLVELVPRRGARVV", "soluble fraction (log2)": -0.298}, {"sequence": "HMHHIDYKQLRRINPVAARRAVLDYLESTGGNITKTAQVFSINRSVVYDILKKQASGDLSDRLRIP", "soluble fraction (log2)": -1.32}, {"sequence": "HMNENNFIVAMRERLAQFIETSGTSQSRIAKELGVSKSTVSLFLGGTYGGNNQELARNLEQLLSMGAARR", "soluble fraction (log2)": -0.96}, {"sequence": "HMSEQVQLQAQVEDDLIGKRLDQVVAQLFPDYSRSRLQGWIKDGSLTVDGESRRPRDKMMGGEVVRVEATL", "soluble fraction (log2)": 0.0984}, {"sequence": "HMHIVQEGDSLYGIARQYRITVEELRSLNALETADVIVPYQKLYV", "soluble fraction (log2)": -0.942}, {"sequence": "HMAAVEDLPVKSVNGKKYHYYTVQPKESLYSLSHKLGISRQEIIKYNPGVEDGLKAYEDLLFPYTPK", "soluble fraction (log2)": 0.105}, {"sequence": "HMGRLPMNIVRAIVEHLDRHASYSEINRATGASKGFISKVAAAVEAASLTPEKFLLLNDEDIQNRITPGR", "soluble fraction (log2)": -0.234}, {"sequence": "HMGTGIKQVNVVSVIGQDEETAKTTLTNLGLKVNVTYATSTSDNGKVTKQSIDAGKTVDEGTSVTITVNKV", "soluble fraction (log2)": 0.241}, {"sequence": "HMLTQEEITRRRGEILTAAMGVILRKGFLETSMREIAEAAGVGKSTLYDYFPSKDEIMIAYVVD", "soluble fraction (log2)": -0.938}, {"sequence": "HMNQKTQMTKQILAESLKKLMLHHSFEKITIKDITDAAGFIRPTFYNHFKDKYDLVEWIFTEEI", "soluble fraction (log2)": -0.364}, {"sequence": "HMHESLAEVAARKLRALIVTGELAPGERVTEAGLTDLLEISRTPAREAIRILSSEGLLVVFPNRGAEVV", "soluble fraction (log2)": -0.822}, {"sequence": "HMKFLHLADLHLGKRVNGFSMLEDQAYILRQILTILDDERPDGVLIAGDVYDKPVPPTEAVELLD", "soluble fraction (log2)": -0.604}, {"sequence": "HMYFGNSLFQARKRSGLSQEGVAEKLGVSRQTVSKWETGETVPDIYQSKKMARLYGVSLDEL", "soluble fraction (log2)": 0.0951}, {"sequence": "HMGTIEEYSKYLINQYFDSLKKPMDAMTTSEKIEIVKSLDKKGIFNLKGSVGELAKRFNTSEKTIYRYLSS", "soluble fraction (log2)": 0.0367}, {"sequence": "HMDDFTEVLLQYLKDHDGYSSIHDKTDAETIYNTFGVSKKTFKKAVGDLYKKRLIVLEEEGIRLLG", "soluble fraction (log2)": -0.0665}, {"sequence": "HMVSRVTTPGVVGKTWQETKQILKQADLTVGSLTRDGKDVTPADGDLVTAQNPSAGQAIVRGSSVDLTFDK", "soluble fraction (log2)": 0.31}, {"sequence": "HMSTSEQVYTTDKVNVRREADTSSEKLGSLEKGTAISRTGTEGEWSVVNYGGVTGYIKTEFLTTEQPQ", "soluble fraction (log2)": 0.132}, {"sequence": "HMEYLIENYGSVINQARMKKGMTQEQLSSKTGVSQAYIRSIESQNMKPTDAVARKIEFELGIKLFE", "soluble fraction (log2)": -0.0273}, {"sequence": "HMETLKLRDSGKEVQSLQELLQRQGLSAPMNGIFDEATKSSVIAFQKANGLDADGIVGYKSWETLFTAG", "soluble fraction (log2)": 0.132}, {"sequence": "HMRSLVDRSVQAVTDHIRENALRVGDSLPGEAYFATSLGVSRAVMREAFGALAALRVIDVGNGRKPRVGAI", "soluble fraction (log2)": -0.58}, {"sequence": "HMDNVINDGMQVRFTGNVDINGTPLKIYDRIYTAEGISDDTVVLMLGNDVYARVYLSDVVPAD", "soluble fraction (log2)": -0.405}, {"sequence": "HMLVDWNYLEGKRGVTTTPLTPSGKARFGDDVVNVLSDGVLVSTGTPVRVLQVLGNRVLVEPLDG", "soluble fraction (log2)": 0.0957}, {"sequence": "HMGKEIEAPDFKNMTLKEAKIAAKEYKIRIKKGDEVVSEEVEKGRIVSQDPDAGTTIKTGSTVTVNISKGL", "soluble fraction (log2)": 0.126}, {"sequence": "HMPKAKASARNDTRTRLLTIGTEVLSQKGFASTGVEEILSVAGVPKGAFYYYFESKAAFGLAVIENYE", "soluble fraction (log2)": 0.0027}, {"sequence": "HMNPYQDSILLWKSFDTPLTNEDFMGLSKEELRIARNEIYAAYGRIFTSQDLIDYFNSKPWYQGTTPA", "soluble fraction (log2)": -0.202}]}]}
